This is an account of results in IntAct's records for PubMed 20935625.

The chains are these.
B1: Dynamin-1 (Homo sapiens), Q05193-5 (parent)
chain: MGNRGMEDLIPLVNRLQDAFSAIGQNADLDLPQIAVVGGQSAGKSSVLENFVGRDFLPRGSGIVTRRPLVLQLVNATTEYAEFLHCKGKKFTDFEEVRLEIEAETDRVTGTNKGISPVPINLRVYSPHVLNLTLVDLPGMTKVPVGDQPPDIEFQIRDMLMQFVTKENCLILAVSPANSDLANSDALKVAKEVDPQGQRTIGVITKLDLMDEGTDARDVLENKLLPLRRGYIGVVNRSQKDIDGKKDITAALAAERKFFLSHPSYRHLADRMGTPYLQKVLNQQLTNHIRDTLPGLRNKLQSQLLSIEKEVEEYKNFRPDDPARKTKALLQMVQQFAVDFEKRIEGSGDQIDTYELSGGARINRIFHERFPFELVKMEFDEKELRREISYAIKNIHGIRTGLFTPDLAFEATVKKQVQKLKEPSIKCVDMVVSELTATIRKCSEKLQQYPRLREEMERIVTTHIREREGRTKEQVMLLIDIELAYMNTNHEDFIGFANAQQRSNQMNKKKTSGNQDEILVIRKGWLTINNIGIMKGGSKEYWFVLTAENLSWYKDDEEKEKKYMLSVDNLKLRDVEKGFMSSKHIFALFNTEQRNVYKDYRQLELACETQEEVDSWKASFLRAGVYPERVGDKEKASETEENGSDSFMHSMDPQLERQVETIRNLVDSYMAIVNKTVRDLMPKTIMHLMINNTKEFIFSELLANLYSCGDQNTLMEESAEQAQRRDEMLRMYHALKEALSIIGDINTTTVSTPMPPPVDDSWLQVQSVPAGRRSPTSSPTPQRRAPAVPPARPGSRGPAPGPPPAGSALGGAPPVPSRPGASPDPFGPPPQVPSRPNRAPPGVPRITISDP

The first assay covers variants of B1. The conditions noted are these: with acts_rabit ACTA1, P68135.
As to K419E, the “effect of a mutation on the interaction” value was “decreasing interaction”.

For the variant K426E, the “effect of a mutation on the interaction” value is “decreasing interaction”.

As to K421E, the “effect of a mutation on the interaction” value is “decreasing interaction”.

As to K414E, the “effect of a mutation on the interaction” value is listed as “decreasing interaction”.

Turning to K415E, the “effect of a mutation on the interaction” value is reported as “decreasing interaction”.

Variants of B1 are the subject of a further assay. Conditions: with acts_rabit ACTA1, P68135. This is another data set of the same source.
Take K419A: the “effect of a mutation on the interaction” value is given as “decreasing interaction”.

In the case of K426A, the “effect of a mutation on the interaction” value was “decreasing interaction”.

On to K421A, for which the “effect of a mutation on the interaction” value was “decreasing interaction”.

For the variant K414A, the “effect of a mutation on the interaction” value is reported as “decreasing interaction”.

Regarding K415A, the “effect of a mutation on the interaction” value is reported as “decreasing interaction”.

Variants of B1 are the subject of another assay. The conditions noted are these: with acts_rabit ACTA1, P68135. This is another data set of the same source.
Regarding E434K, the “effect of a mutation on the interaction” value was “increasing interaction”.
